Columns and labels:
EPHB2 = EPHB2 (UniProt P29323); assay: phosphorylation enrichment, bacterial display (enrichment ratio); higher = better substrate or ligand; peptides without Tyr show the background
c-Abl (mouse) = assay: as above
Fes = Fes (UniProt P07332); assay: as above
AncSZ = assay: as above
Jak2 = Jak2 (UniProt O60674); assay: as above
MERTK = MERTK (UniProt Q12866); assay: as above
FGFR3 = FGFR3 (UniProt P22607); assay: as above
EPHB1 = EPHB1 (UniProt P54762); assay: as above
FGFR1 = FGFR1 (UniProt P11362); assay: as above
Fer (mouse) = assay: as above
Fyn = Fyn (UniProt P06241); assay: as above
c-Src = assay: as above
Hck = Hck (UniProt P08631); assay: as above
Grb2 SH2 = Grb2 SH2 (UniProt P62993); assay: SH2 binding enrichment of the phosphorylated peptide, bacterial display (enrichment ratio); higher = better substrate or ligand; peptides without Tyr show the background
SHP2-C SH2 = assay: as above
c-Src SH2 = assay: as above
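Throughout, for SH2 binding enrichment of the phosphorylated peptide, bacterial display: peptide library displayed on the E. coli surface as eCPX fusions, selected cells deep-sequenced, score is each peptide's frequency after selection divided by its frequency in the input.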
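Throughout, for phosphorylation enrichment, bacterial display: 11-residue human phosphosite peptides and single-mutation variants displayed on the E. coli surface, counted by deep sequencing, each peptide's frequency after selection divided by its frequency in the unselected input library; frequency after pTyr selection over input frequency; kinase dosed for 20-30% of maximal phosphorylation in three min.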

Chain of MERTK (Q12866 whole entry, looked up): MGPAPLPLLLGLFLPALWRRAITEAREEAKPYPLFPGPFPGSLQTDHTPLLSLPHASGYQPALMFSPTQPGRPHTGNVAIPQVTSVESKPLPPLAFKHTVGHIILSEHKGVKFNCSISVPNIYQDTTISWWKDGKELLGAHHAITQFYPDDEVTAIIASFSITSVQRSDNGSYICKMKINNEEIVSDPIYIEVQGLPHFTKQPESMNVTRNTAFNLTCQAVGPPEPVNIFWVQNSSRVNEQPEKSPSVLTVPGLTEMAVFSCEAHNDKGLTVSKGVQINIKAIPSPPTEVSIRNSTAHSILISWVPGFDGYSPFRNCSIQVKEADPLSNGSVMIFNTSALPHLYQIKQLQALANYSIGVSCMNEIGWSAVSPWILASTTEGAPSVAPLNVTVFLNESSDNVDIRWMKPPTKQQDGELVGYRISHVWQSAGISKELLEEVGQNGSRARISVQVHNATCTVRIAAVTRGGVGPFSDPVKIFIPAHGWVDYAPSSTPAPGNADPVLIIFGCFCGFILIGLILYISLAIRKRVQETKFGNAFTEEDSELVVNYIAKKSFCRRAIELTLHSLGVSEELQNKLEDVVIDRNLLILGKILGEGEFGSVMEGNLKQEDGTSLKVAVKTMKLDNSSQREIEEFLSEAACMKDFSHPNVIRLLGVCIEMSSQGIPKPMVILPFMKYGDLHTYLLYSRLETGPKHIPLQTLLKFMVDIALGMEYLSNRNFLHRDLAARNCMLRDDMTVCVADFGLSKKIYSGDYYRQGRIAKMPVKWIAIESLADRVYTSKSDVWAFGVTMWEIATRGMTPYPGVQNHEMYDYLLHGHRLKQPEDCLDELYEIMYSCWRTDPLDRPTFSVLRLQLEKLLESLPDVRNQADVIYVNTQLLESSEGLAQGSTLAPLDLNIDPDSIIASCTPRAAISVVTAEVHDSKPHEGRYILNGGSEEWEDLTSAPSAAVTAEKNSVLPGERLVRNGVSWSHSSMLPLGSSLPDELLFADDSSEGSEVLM
Chain of EPHB2 (P29323 whole entry, looked up): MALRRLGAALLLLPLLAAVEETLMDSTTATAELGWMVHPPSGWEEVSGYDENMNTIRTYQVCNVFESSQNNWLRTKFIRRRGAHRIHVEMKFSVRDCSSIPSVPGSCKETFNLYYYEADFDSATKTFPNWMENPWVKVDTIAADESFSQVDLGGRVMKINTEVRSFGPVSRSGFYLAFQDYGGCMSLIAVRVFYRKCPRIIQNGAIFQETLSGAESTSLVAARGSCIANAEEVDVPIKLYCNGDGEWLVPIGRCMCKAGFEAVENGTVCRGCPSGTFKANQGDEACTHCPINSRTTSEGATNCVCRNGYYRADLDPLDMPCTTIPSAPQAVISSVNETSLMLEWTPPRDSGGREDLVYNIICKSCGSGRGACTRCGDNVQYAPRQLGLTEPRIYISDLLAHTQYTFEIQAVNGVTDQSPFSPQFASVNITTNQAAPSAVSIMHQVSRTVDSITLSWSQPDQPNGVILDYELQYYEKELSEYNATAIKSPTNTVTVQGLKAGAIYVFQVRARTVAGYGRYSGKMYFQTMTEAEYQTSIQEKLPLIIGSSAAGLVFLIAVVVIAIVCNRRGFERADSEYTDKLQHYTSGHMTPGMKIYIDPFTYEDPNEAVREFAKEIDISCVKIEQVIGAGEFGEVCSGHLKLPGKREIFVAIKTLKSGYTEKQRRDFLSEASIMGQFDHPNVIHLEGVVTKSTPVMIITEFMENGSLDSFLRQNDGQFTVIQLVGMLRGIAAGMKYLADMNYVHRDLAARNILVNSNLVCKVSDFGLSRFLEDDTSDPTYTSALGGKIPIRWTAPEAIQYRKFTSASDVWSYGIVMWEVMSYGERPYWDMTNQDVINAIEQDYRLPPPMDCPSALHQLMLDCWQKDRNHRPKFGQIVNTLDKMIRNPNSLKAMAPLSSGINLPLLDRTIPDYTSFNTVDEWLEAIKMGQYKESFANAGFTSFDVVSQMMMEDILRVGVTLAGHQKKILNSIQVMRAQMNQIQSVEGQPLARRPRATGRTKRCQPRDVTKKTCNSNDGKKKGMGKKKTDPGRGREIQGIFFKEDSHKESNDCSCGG
Chain of FGFR3 (P22607 whole entry, looked up): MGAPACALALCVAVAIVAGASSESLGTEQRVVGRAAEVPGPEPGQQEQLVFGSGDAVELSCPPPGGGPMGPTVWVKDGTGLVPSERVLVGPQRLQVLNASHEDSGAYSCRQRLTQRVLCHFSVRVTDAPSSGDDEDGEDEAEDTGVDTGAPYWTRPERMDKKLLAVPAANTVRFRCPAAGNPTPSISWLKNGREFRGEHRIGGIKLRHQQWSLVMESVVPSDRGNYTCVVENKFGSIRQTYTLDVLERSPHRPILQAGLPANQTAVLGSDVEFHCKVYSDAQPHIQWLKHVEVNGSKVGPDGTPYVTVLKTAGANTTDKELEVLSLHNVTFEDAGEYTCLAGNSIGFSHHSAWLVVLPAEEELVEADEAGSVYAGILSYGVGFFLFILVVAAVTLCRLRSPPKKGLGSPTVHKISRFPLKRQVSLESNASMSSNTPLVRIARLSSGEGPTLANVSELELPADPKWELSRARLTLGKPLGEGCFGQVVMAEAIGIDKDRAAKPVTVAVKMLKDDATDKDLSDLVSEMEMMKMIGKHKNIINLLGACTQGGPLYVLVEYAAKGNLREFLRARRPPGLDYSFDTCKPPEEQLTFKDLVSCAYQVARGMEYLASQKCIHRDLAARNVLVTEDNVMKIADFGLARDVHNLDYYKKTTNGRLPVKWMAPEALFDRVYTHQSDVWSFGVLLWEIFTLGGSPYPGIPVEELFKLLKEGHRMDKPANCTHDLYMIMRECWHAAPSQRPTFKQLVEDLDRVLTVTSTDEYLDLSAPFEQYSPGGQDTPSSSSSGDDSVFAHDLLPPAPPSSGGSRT
Chain of Jak2 (O60674 whole entry, looked up): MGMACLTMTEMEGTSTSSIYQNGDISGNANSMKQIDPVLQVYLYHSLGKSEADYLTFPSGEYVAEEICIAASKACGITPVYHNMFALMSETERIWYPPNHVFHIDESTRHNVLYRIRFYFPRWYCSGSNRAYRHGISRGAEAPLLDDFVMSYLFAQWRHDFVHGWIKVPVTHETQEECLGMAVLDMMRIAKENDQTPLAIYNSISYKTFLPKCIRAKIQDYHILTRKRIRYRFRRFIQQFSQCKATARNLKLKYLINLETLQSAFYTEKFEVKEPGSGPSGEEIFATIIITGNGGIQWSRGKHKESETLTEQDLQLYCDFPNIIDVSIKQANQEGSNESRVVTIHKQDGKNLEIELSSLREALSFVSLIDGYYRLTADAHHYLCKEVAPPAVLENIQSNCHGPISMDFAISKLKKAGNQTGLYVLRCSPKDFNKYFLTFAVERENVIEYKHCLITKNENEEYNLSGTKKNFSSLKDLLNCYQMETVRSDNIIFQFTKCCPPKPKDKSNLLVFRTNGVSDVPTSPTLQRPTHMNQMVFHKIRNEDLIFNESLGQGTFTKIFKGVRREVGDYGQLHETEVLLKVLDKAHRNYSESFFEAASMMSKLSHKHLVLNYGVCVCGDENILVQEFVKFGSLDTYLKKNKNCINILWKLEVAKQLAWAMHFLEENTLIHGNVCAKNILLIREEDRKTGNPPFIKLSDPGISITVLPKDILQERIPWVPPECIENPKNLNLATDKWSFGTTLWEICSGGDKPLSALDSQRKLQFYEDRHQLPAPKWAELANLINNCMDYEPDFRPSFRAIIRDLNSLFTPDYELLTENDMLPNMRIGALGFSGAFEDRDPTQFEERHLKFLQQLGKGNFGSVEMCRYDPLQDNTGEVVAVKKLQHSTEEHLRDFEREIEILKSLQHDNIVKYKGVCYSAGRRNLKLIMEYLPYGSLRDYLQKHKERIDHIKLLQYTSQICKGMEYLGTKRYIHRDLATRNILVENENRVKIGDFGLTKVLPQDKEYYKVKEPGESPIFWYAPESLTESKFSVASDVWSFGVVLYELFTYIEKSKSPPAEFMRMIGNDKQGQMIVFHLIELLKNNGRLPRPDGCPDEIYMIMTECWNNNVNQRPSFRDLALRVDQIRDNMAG
Chain of Fes (P07332 whole entry, looked up): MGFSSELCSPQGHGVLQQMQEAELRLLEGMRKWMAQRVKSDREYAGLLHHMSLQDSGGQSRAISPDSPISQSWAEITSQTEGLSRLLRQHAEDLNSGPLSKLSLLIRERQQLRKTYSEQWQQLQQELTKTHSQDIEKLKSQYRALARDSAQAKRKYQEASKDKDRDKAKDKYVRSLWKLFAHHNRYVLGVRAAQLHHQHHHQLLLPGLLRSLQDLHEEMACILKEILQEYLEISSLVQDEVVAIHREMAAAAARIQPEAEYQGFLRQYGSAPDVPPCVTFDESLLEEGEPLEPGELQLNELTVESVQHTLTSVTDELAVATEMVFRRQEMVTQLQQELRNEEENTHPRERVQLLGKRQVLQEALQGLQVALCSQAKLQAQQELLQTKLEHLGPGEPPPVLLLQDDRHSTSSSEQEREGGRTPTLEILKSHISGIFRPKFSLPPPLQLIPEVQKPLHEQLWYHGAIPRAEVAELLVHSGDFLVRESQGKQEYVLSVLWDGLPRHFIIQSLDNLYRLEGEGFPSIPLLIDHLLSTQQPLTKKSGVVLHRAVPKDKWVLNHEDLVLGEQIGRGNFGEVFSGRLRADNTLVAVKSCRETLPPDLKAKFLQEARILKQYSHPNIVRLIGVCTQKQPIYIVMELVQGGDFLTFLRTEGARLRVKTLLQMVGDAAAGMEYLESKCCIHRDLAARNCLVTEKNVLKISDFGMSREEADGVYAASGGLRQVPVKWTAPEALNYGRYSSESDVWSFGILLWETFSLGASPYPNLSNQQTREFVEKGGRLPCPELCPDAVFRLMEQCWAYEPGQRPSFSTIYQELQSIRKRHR

Row | Sequence | SH2 binding enrichment (Grb2 SH2) | SH2 binding enrichment (SHP2-C SH2) | SH2 binding enrichment (c-Src SH2) | phosphorylation enrichment (EPHB2) | phosphorylation enrichment (c-Abl (mouse)) | phosphorylation enrichment (Fes) | phosphorylation enrichment (AncSZ) | phosphorylation enrichment (Jak2) | phosphorylation enrichment (MERTK) | phosphorylation enrichment (FGFR3) | phosphorylation enrichment (EPHB1) | phosphorylation enrichment (FGFR1) | phosphorylation enrichment (Fer (mouse)) | phosphorylation enrichment (Fyn) | phosphorylation enrichment (c-Src) | phosphorylation enrichment (Hck)
1 | FSEVRYMKEPY [HIPK4_Y170_V171M] | 1.06 | 0.757 | 0.484 | 0.496 | 0.695 | 0.988 | 0.852 | 0.781 | 0.463 | 0.72 | 0.425 | 0.485 | 0.437 | 0.36 | 0.432 | 0.536
2 | DTLLEYLENPK [CYCS_Y68_M66L] | 0.763 | 0.735 | 0.501 | 0.535 | 0.668 | 1.25 | 1.45 | 1.04 | 0.448 | 0.828 | 0.7 | 0.503 | 0.576 | 0.493 | 0.463 | 0.511
3 | KPRKLYTIKKP [BRD2_Y715_P714L] | 1.07 | 1.19 | 0.972 | 0.444 | 0.456 | 0.496 | 0.608 | 0.532 | 0.408 | 0.427 | 0.374 | 0.328 | 0.413 | 0.375 | 0.442 | 0.452
4 | TSIGNYYKPWF [DHCR24_Y299_N294T] | 0.844 | 2.71 | 1.27 | 15.7 | 14.6 | 0.868 | 1 | 11.5 | 10.1 | 4.18 | 16.3 | 5.29 | 0.438 | 0.59 | 0.707 | 1.03
5 | SRGHQYQELPR [KCNH2_Y1009_R1007H] | 1.04 | 0.807 | 5.11 | 0.602 | 0.589 | 0.672 | 0.527 | 0.721 | 0.576 | 0.464 | 0.466 | 0.609 | 0.413 | 0.487 | 0.35 | 1.06
6 | PFTRNYFVQAV [CYBA_Y87_R90Q_YF] | 0.634 | 0.467 | 0.533 | 0.747 | 0.65 | 1.2 | 0.963 | 0.6 | 0.763 | 0.905 | 0.601 | 1.16 | 1.25 | 0.943 | 0.353 | 0.979
7 | IHETTHNSIMK [ACTA1_Y281_Y281H] | 0.736 | 0.537 | 0.43 | 0.349 | 0.401 | 0.469 | 0.452 | 0.471 | 0.38 | 0.39 | 0.304 | 0.425 | 0.347 | 0.43 | 0.262 | 0.463
8 | HNLDYYKETTN [FGFR3_Y648_K650E] | 1.24 | 0.874 | 0.732 | 0.857 | 0.788 | 1.06 | 1.25 | 1.01 | 0.553 | 2.12 | 0.633 | 2.08 | 0.766 | 0.597 | 0.47 | 0.734
9 | GYDHSYYFIAT [ESD_Y262] | 0.702 | 0.727 | 0.871 | 1.24 | 0.759 | 1.22 | 2.05 | 6.79 | 4.8 | 9.89 | 1.95 | 11.1 | 1.1 | 1.41 | 1.57 | 2.02
10 | ENAGYYFQVSA | 0.953 | 0.884 | 0.691 | 0.566 | 0.603 | 1.37 | 1.17 | 1.43 | 0.602 | 1.06 | 0.578 | 0.94 | 0.595 | 0.527 | 0.444 | 0.448
11 | KASGKYFAMKI [AKT3_Y173_YF] | 1.37 | 1.45 | 1.21 | 0.338 | 0.447 | 0.626 | 0.495 | 0.508 | 0.367 | 0.421 | 0.372 | 0.347 | 0.34 | 0.344 | 0.351 | 0.323
12 | LWKWRYEELKE [CCDC102B_Y299_K298R] | 1.29 | 1.36 | 2.08 | 1.09 | 1.7 | 2.5 | 1.34 | 2.73 | 0.909 | 1.02 | 1.28 | 0.503 | 0.771 | 0.629 | 0.715 | 0.561
13 | QLRPGYFPIPV [BAG3_Y93_I94F] | 0.697 | 0.906 | 0.475 | 0.585 | 0.53 | 0.679 | 0.6 | 0.981 | 0.531 | 0.56 | 0.448 | 0.593 | 0.42 | 0.536 | 0.423 | 0.466
14 | AVDMTYDGHPV [FLNB_Y1020_V1018M] | 0.877 | 0.662 | 0.461 | 4.79 | 0.768 | 0.926 | 1.19 | 0.765 | 0.593 | 0.737 | 1.67 | 0.576 | 0.89 | 3.3 | 3.61 | 3.87
15 | PEFMVYKPQME [CCRL2_Y170_V168M] | 0.794 | 0.635 | 0.457 | 0.624 | 0.685 | 1.06 | 1.03 | 0.898 | 0.464 | 0.867 | 0.665 | 0.592 | 0.476 | 0.494 | 0.884 | 0.661
16 | LEQRPYRRGSE [KCNJ12_Y427_E430G] | 0.891 | 0.733 | 0.419 | 0.478 | 0.594 | 0.683 | 0.651 | 0.576 | 0.442 | 0.511 | 0.348 | 0.365 | 0.447 | 0.424 | 0.399 | 0.523
17 | EFKDAYKFAAD [BRDT_Y335_YF] | 0.7 | 0.779 | 0.459 | 0.491 | 0.459 | 0.731 | 0.647 | 0.638 | 0.492 | 0.524 | 0.367 | 0.414 | 0.408 | 0.414 | 0.447 | 0.429
18 | KFWREYILSLE [GPC3_Y299_YF] | 1.27 | 1.31 | 0.932 | 0.666 | 0.912 | 1.2 | 0.999 | 0.997 | 0.431 | 0.72 | 0.552 | 0.478 | 0.422 | 0.462 | 0.588 | 0.452

Second part, led by results:

Row | SH2 binding enrichment (Grb2 SH2) | SH2 binding enrichment (SHP2-C SH2) | SH2 binding enrichment (c-Src SH2) | Sequence | phosphorylation enrichment (EPHB2) | phosphorylation enrichment (c-Abl (mouse)) | phosphorylation enrichment (Fes) | phosphorylation enrichment (AncSZ) | phosphorylation enrichment (Jak2) | phosphorylation enrichment (MERTK) | phosphorylation enrichment (FGFR3) | phosphorylation enrichment (EPHB1) | phosphorylation enrichment (FGFR1) | phosphorylation enrichment (Fer (mouse)) | phosphorylation enrichment (Fyn) | phosphorylation enrichment (c-Src) | phosphorylation enrichment (Hck)
19 | 0.861 | 0.448 | 0.401 | ADDSYYTARSA [ZAP70_Y493] | 0.603 | 0.542 | 0.706 | 0.932 | 0.597 | 0.634 | 0.754 | 0.484 | 0.773 | 0.518 | 0.623 | 0.7 | 1.12
20 | 1.21 | 9.46 | 5.39 | HSPLRYTSILT [OR51B6_Y130_R125H] | 0.602 | 0.547 | 1.4 | 0.915 | 0.807 | 0.634 | 0.849 | 0.782 | 1.19 | 0.892 | 0.823 | 0.574 | 0.683
21 | 1.33 | 5.53 | 2.73 | CTTIHYHYMCN [TP53_Y234_N235H] | 0.425 | 0.661 | 0.963 | 0.964 | 0.668 | 0.446 | 0.667 | 0.551 | 0.568 | 0.523 | 0.561 | 0.414 | 0.551
22 | 0.944 | 0.622 | 0.632 | PSARTYCFKQE [KLHDC9_Y175_YF] | 0.595 | 0.491 | 0.802 | 0.743 | 0.624 | 0.429 | 0.571 | 0.386 | 0.469 | 0.415 | 0.622 | 0.494 | 0.413
23 | 0.921 | 1.92 | 2.84 | MGSYNYLGFPR [SPTLC2_Y178_A182P] | 2.77 | 1.04 | 0.748 | 0.806 | 3.81 | 6.35 | 1.48 | 5.53 | 2.29 | 0.59 | 0.511 | 0.735 | 1.39
24 | 1.03 | 3.06 | 1.07 | GLSAPYVKIHL [SYT2_Y309_D307A] | 0.423 | 0.509 | 0.785 | 0.747 | 0.994 | 0.43 | 0.714 | 0.426 | 0.436 | 0.527 | 0.337 | 0.383 | 0.443
25 | 2.08 | 0.784 | 1.06 | CPPELYALMSD [ZAP70_Y569] | 1.13 | 0.681 | 1.31 | 1.57 | 0.892 | 3.54 | 1 | 3.39 | 0.905 | 1.19 | 0.612 | 0.828 | 1.08
26 | 0.702 | 0.755 | 0.579 | TYGQVYKGPHV [TNIK_Y40_R43P] | 0.633 | 0.666 | 0.751 | 0.68 | 0.826 | 0.618 | 0.468 | 0.586 | 0.534 | 0.398 | 12.4 | 9.04 | 7.7
27 | 0.851 | 0.654 | 0.599 | KPIETYFSKNY [PLP1_Y50_L46P] | 0.408 | 0.473 | 0.603 | 0.595 | 0.534 | 0.466 | 0.597 | 0.392 | 0.466 | 0.4 | 0.448 | 0.452 | 0.45
28 | 1.02 | 1.09 | 0.616 | ECKLLYSRKEG [PTPN11_Y263] | 0.513 | 0.77 | 0.754 | 0.855 | 0.647 | 0.483 | 0.554 | 0.436 | 0.487 | 0.465 | 0.446 | 0.425 | 0.564
29 | 1.92 | 0.548 | 0.786 | LINPKYSVEEE [PCDH19_Y27_L25P] | 0.986 | 1.39 | 2.28 | 1.8 | 1.65 | 0.836 | 1.36 | 1.06 | 0.753 | 0.977 | 0.797 | 0.608 | 0.55
30 | 1.19 | 0.748 | 0.97 | SHTPSYCDEWL [RITA1_Y109_S113W] | 0.558 | 0.985 | 1.12 | 1.17 | 0.97 | 0.553 | 0.779 | 0.645 | 0.529 | 0.57 | 0.473 | 0.494 | 0.505
31 | 0.916 | 0.543 | 0.475 | QADIIYVNTQL [MERTK_Y872_V870I] | 0.518 | 1.02 | 1.29 | 1.28 | 1.05 | 0.571 | 0.84 | 1.18 | 0.712 | 4.18 | 1.09 | 1.24 | 0.886
32 | 1.19 | 1.52 | 1.61 | ISSLPYMKMIF [SLC4A11_Y853_M848I] | 0.547 | 0.872 | 1.07 | 1.05 | 1.35 | 0.668 | 0.665 | 0.536 | 0.696 | 1.11 | 0.457 | 0.79 | 0.677
33 | 0.84 | 0.648 | 0.372 | APRKVYDTRDD [ZFPL1_Y215] | 0.44 | 0.485 | 0.736 | 0.641 | 0.614 | 0.372 | 0.581 | 0.45 | 0.427 | 0.403 | 0.408 | 0.422 | 0.493
